From publication PMC2172684

The substances below were run against importin α (UniProt P52292) (assay: ELISA).
In the case of “importin β L612D/F688A (m-C) (from UniProt Q14974 1-876) (natural protein)”, the Kd is reported as 2.2 nM. In the case of “importin β m-C (304–876) (from UniProt Q14974 304-876) (domain or fragment)”, the Kd is reported as 4.3 nM. Substance “wild-type importin β (from UniProt Q14974 1-876) (natural protein)” has a Kd of 0.9 nM. With “importin β m-N/m-C (from UniProt Q14974 1-876) (natural protein)” the Kd was 2.1 nM. Substance “importin β I178A/F217A/Y255A/I263R (m-N) (from UniProt Q14974 1-876) (natural protein)” has a Kd of 1.1 nM. For “importin β (304–876) (from UniProt Q14974 304-876) (domain or fragment)”, the Kd was 2.5 nM.

These substances were tested against GST–RanGTP (UniProt P62826) (assay: ELISA).
Work on “wild-type importin β (from UniProt Q14974 1-876) (natural protein; other documents disagree on this pair)” yielded a Kd of 3.3 nM.

Molecular target: importin α (UniProt P52292)
Assay: ELISA
Remark: another data set of the same source
“importin β E214A (from UniProt Q14974 1-876) (natural protein)” was tested, and the Kd was 1.3 nM. “importin β I178D (from UniProt Q14974 1-876) (natural protein)” showed a Kd of 1.2 nM. With “importin β I178D/Y255A (from UniProt Q14974 1-876) (natural protein)” the Kd was 1.1 nM. For “wild-type importin β (from UniProt Q14974 1-876) (natural protein)”, the Kd was 0.9 nM. “importin β I263R (from UniProt Q14974 1-876) (natural protein)” was tested, and the Kd was 0.9 nM. “importin β I178A/F217A/Y255A/I263R (m-N) (from UniProt Q14974 1-876) (natural protein)” showed a Kd of 1.2 nM. “importin β I178A (from UniProt Q14974 1-876) (natural protein)” was tested, and the Kd was 1.1 nM.
